Test results reported in US11459369B2, “Fusion protein for alpha-melanocyte stimulating hormone and preparation method and use thereof” (LANZHOU UNIVERSITY, priority 2015, dated 2022).

How the values were obtained:
[1] = rat, iv administration, full length peptide; cited from earlier work
[2] = system: TNF-α; assay: Experimental brain inflammation of mouse induced by LPS: TNF-α in hippocampal tissue homogenate by ELISA; format: in vivo; conditions: mice
Excerpt: Neuroprotection of TAT-HSA-α-MSH on Experimental Brain Inflammation in Mice
TNF-a Elisa Kit (Dakewei, China).
20 mice (18-22 g) were used in the experiment, and were purchased from Laboratory Animal Center of Lanzhou University.
Lipopolysaccharide (LPS), a gram negative bacterial endotoxin, is the cell wall component of gram negative bacteria. Within the CNS, LPS challenge triggers central inflammatory responses, which results in releasing of proinflammatory mediators such as TNF-α. Therefore, to determine whether the described PTD-HSA-L-α-MSH can inhibit the production of pro-inflammatory factors in vivo, experimental brain inflammation of mouse induced by LPS was established, in which TNF-α was analyzed to detect the efficacy of PTD-HSA-L-α-MSH.
Mice were housed in groups of at most five animals per cage with clean water and food available ad libitum. The mice in control group were injected with 150 μL saline two times. The mice in LPS group were injected with 150 μL LPS at the dose of 5 mg/kg, and then injected with 150 μL saline. The mice in PTD-HSA-L-α-MSH+LPS group were injected with 150 μL LPS at the dose of 5 mg/kg, and then injected with 150 μL PTD-HSA-L-α-MSH at the dose of 1 μm/kg. The mice in α-MSH+LPS group were injected with 150 μL LPS at the dose of 5 mg/kg, and then injected with 150 μL α-MSH at the dose of 1 μm/kg. Mice were anesthetized 2 h after drug administration. […]

[3] = Validation of the ability to cross the BBB: level of fusion protein in hippocampal tissue homogenate by HSA ELISA; format: in vivo; conditions: mice, 1 μm/kg single intravenous injection, hippocampal tissue 6 h after administration
Procedure: Validation of the Ability to Across BBB of PTD-HSA-L-α-MSH
HSA Elisa Kit (cygnustechnologies).
10 mice (18-22 g) were used in the experiment, and were purchased from Laboratory Animal Center of Lanzhou University.
Mice were housed in groups of at most five animals per cage with clean water and food available ad libitum. PTD-HSA-L-α-MSH or HSA-L-α-MSH were given at a dosage of 1 μm/kg through a single intravenous injection in 150 μL volume. Mice were anesthetized 6 h after drug administration. The hippocampal tissue was harvest and homogenized immediately. Finally the level of PTD-HSA-L-α-MSH or HSA-L-α-MSH in hippocampal tissue homogenate was tested by ELISA.

| Substance | half-life [1] | TNF-α (pg/mg protein) in hippocampal tissues tested by ELISA ([2]; LPS 5 mg/kg then substance 1 μm/kg, hippocampal tissue 2 h after administration) [pg/mg protein] | effect on TNF-α increase compared with LPS group ([2]; LPS 5 mg/kg, single dose of 1 μm/kg intraperitoneally) | PTD-HSA-L-α-MSH(ng/mL), level in hippocampal tissue homogenate tested by ELISA [3] [ng/mL] |
| --- | --- | --- | --- | --- |
| α-Melanocyte stimulating hormone [α-MSH, reference compound] | a few minutes | 155.8 ± 10.3 | could not be suppressed |  |
| HSA-L-α-MSH: fusion protein of HSA, linker and α-MSH without PTD; amino acid sequence SEQ ID NO:10, about 69 KDa; comparator |  |  |  | 0.06 ± 0.02 |
